Measured values: patent US20250115669A1, “FGFR1/KLB Targeting Agonistic Antigen-Binding Proteins and Conjugates Thereof with GLP-1R Agonistic Peptides” (SANOFI, priority 2020, published 2025)

How the values were obtained:
[1] = target: T1, FGFR1c and co-receptor beta-Klotho (KLB) (Homo sapiens, UniProt P11362+Q86Z14); test: Luciferase reporter gene assay (iLite FGF21 Assay Ready Cells), FGF21-like signaling; type: cell-based
T1 construct: host or cells: iLite FGF21 Assay Ready Cells (HEK293)

[2] = Capillary isoelectric focusing (cIEF); type: physicochemical
Procedure: Charge heterogeneity of the antibody samples was determined by capillary isoelectric focusing (cIEF) using a Maurice C device (Protein Simple). The samples were prepared by the cIEF protocol given by the manufacturer with an ampholyte mix 3-10 (Protein Simple) and peptide pl markers of 5.85 and 9.0 (Protein Simple). cIEF runs were analyzed using Compass Software v2.1.0 (Protein Simple).

[3] = Intact mass spectrometry (IMS); type: physicochemical; settings: for intact mass Identity confirmed / intact mass Peak intensity post stress: 21 days
Procedure: Protein integrity was analyzed by LC-MS. […] Reversed phase (RP) chromatography was done using a PLRP-S 1000A 5 μm, 50×2.1 mm (Agilent) with a guard column PLRP-S 300A 5 μm, 3×5 mm (Agilent) at 200 μL/min and 80° C. column temperature. Eluents were buffer A containing LC water and 0.1% formic acid as well as buffer B containing 90% acetonitrile, 10% LC water and 0.1% formic acid. 1 μg of protein was injected onto the column and eluted using linear gradient from 0 to 17 minutes with increasing acetonitrile concentration. Data was analyzed using MassHunter Bioconfirm B.06 (Agilent). Molecular masses were calculated based on the amino acid sequences of the proteins using GPMAW software version 10 (Lighthouse data).

[4] = In vivo PK in cynomolgus monkeys, single intravenous dose; parameters: species or system Cynomolgus monkey (Macaca fascicularis); settings: Macaca fascicularis, plasma
Procedure: Naive cynomolgus monkeys received a single intravenous dose of mAb according to the following table:
In all investigations, the animals were evaluated twice daily for post-dose mortality/moribundity and cage side clinical observations were carried out after each study blood collection time. Studies were Non-GLP, nevertheless, these studies have been conducted in a GLP compliant facility using practices detailed in Standard Operating Procedures consistent with the principles of GLP (Test facility: Sanofi and Charles River Laboratories). Plasma concentrations and pharmacokinetic parameters of the tested antibodies were investigated after single intravenous administration.

[5] = NHP study of Ab0335 (SAR18) versus 16H7 (SAR16) in high-fat diet-induced obese cynomolgus monkeys; type: in vivo, Cynomolgus monkey (Macaca fascicularis); settings: for body weight compared to baseline values (value prior start of treatment) / food intake: obese cynomolgus monkeys; for body weight (in words): SAR16 1 mg/kg, SAR18 low- and high-dose; for food intake: especially lunch (apple), lesser impact on dinner (HFD); for plasma triglyceride (TG) values: over the whole study period
Procedure: Both were tested as single administration in the most relevant animal model that reflects the intended human population. Monkeys are a desirable species to examine the potential effects of drug candidates because of the similarity of their absorption, distribution, metabolism, and excretion profile compared to that of humans. The cynomolgus monkey is selected as the test species of choice over other lower mammalian species for more meaningful and translatable results because it is closely related to humans, both phylogenetically and physiologically. Thus, the pharmacokinetic and pharmacodynamics of varying doses of the compounds were explored in the high-fat diet-induced obese and insulin resistance cynomolgus monkey model.
Cynomolgus monkey (Macaca fascicularis) was selected as the test species of choice for more meaningful results that were translatable to humans. More than 50 male monkeys were trained to identify 40 HFD induced obese monkeys for the study.
They all fulfilled the following metabolic criteria: • weight at least 8 kg, age at least 8 years, fasting insulin >55 μU/mL (in comparison lean monkeys of same age range: weight 5 to 8 kg, fasting glucose ˜70 mg/dL, and fasting insulin ˜[…]), HbA1c >4%, triglycerides >1.3 mmol/L, LDL >5 mmol/L.
The monkeys were individually housed in species- and size appropriate metabolic stainless-steel caging with ad libitum access to water and under controlled environmental conditions with room temperature of 18° C. to 29° C., relative humidity of 30% to 70%, and a minimum of 10 air changes per hour. A time-controlled lighting system provided a regular 12-hour light/12-hour dark diurnal cycle. Cages were cleaned at regular intervals. The monkeys had three meals per day with a daily energy intake of ˜680 kcal (˜2.85 MJ). All food was withdrawn at 5:00 PM so that monkeys were fasted overnight. Monkeys were provided with enrichment toys or devices at all times. […] Each batch of monkey chow was delivered with an accompanying certificate of analysis detailing nutritional composition and levels of specified contaminants (e.g., heavy metals, aflatoxin, and insecticides). Ad libitum access to water through the main system was suspended on days in which water intake was quantified.
There was a run-in period during which monkeys were injected subcutaneously with vehicle once weekly. Food intake (calculated as TEI) and water intake were measured daily along with once-weekly body weight evaluation and one-time baseline value determination for metabolic biomarkers, safety biomarkers, IV glucose tolerance test (IVGTT), and profile for glucose, insulin, and plasma lipids.
For the dosing period 40 trained monkeys (n=10 per group) were selected and stratified for their body weight, fat composition and triglycerides in a four-arm design. All treatments, including a vehicle treated control group were administered subcutaneously on days +1, +19 and +37 and monitored closely for 8 weeks followed by a 4-week observation wash-out period. The dosing period was designed as a four-arm study, and monkeys were treated with either vehicle, SAR16, or SAR18.
The SAR16-treated monkeys were dosed at 1 mg/kg on day +1, day +19, and day +37. The SAR18-treated monkeys were dosed in the low-dose arm at 1 mg/kg on day +1, day +19, and day +37. SAR18 was further dosed in the high-dose arm at 3 mg/kg on day +1, day +19, and day +37.
Other parameters were also measured during the study, including food intake, body fat, plasma ketone bodies, as well as, on blood glucose control (glucose profile, fed, fasting plasma glucose and during ivGTT). One group received the vehicle. The compounds were administered subcutaneously (SC) (12 weeks “evaluation phase” plus run-out) to obese male cynomolgus macaques (Macaca fascicularis).
The SAR16-treated monkeys were dosed 3 times on day +1, day +19, and day +37 at 1 mg/kg. […]

[6] = Plasma concentrations and PK during three subcutaneous administrations in obese cynomolgus monkeys; type: in vivo, Cynomolgus monkey (Macaca fascicularis); settings: subcutaneous doses of 1 mg/kg, male obese Cynomolgus monkeys
Procedure: Specifically, plasma concentrations and pharmacokinetic parameters were analyzed during a treatment of three subsequent subcutaneous administrations of 1 and 3 mg/kg in solution to male obese Cynomolgus monkeys. The exposure to both tested antibodies after subcutaneous doses of 1 mg/kg […] were similar. Moreover, plasma concentrations of both compounds were detected up to the end of sampling (i.e. 336 and 504 hours after the 2nd and the 3rd dose, respectively).

T1 sequence (Q86Z14 53-1044 limits assumed): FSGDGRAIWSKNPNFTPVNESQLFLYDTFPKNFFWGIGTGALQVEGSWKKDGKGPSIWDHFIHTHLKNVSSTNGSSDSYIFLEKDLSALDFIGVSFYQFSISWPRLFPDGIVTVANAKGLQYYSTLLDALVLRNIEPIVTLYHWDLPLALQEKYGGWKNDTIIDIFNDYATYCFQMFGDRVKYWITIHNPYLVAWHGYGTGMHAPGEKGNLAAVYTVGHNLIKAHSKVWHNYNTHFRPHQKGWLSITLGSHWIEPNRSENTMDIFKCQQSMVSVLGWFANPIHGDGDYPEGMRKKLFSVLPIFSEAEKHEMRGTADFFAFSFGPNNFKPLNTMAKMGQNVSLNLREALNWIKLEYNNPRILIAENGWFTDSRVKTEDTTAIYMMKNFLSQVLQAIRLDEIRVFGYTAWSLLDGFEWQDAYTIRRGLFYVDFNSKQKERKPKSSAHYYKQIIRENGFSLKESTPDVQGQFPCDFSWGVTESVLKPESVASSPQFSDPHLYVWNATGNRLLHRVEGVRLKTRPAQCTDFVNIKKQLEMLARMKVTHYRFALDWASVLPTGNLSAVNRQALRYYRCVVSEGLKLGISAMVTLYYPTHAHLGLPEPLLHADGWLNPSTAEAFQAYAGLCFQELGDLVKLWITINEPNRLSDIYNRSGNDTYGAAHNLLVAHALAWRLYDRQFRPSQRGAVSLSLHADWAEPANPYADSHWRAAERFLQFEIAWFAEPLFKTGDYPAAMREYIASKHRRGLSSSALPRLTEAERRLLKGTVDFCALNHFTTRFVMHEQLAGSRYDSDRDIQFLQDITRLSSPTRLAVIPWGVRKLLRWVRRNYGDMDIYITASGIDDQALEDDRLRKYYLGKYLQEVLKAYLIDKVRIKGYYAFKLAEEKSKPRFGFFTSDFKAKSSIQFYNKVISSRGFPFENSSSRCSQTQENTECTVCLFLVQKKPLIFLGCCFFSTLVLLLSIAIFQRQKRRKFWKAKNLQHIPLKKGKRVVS
T1 sequence (P11362 22-820 isoform P11362-2 limits assumed): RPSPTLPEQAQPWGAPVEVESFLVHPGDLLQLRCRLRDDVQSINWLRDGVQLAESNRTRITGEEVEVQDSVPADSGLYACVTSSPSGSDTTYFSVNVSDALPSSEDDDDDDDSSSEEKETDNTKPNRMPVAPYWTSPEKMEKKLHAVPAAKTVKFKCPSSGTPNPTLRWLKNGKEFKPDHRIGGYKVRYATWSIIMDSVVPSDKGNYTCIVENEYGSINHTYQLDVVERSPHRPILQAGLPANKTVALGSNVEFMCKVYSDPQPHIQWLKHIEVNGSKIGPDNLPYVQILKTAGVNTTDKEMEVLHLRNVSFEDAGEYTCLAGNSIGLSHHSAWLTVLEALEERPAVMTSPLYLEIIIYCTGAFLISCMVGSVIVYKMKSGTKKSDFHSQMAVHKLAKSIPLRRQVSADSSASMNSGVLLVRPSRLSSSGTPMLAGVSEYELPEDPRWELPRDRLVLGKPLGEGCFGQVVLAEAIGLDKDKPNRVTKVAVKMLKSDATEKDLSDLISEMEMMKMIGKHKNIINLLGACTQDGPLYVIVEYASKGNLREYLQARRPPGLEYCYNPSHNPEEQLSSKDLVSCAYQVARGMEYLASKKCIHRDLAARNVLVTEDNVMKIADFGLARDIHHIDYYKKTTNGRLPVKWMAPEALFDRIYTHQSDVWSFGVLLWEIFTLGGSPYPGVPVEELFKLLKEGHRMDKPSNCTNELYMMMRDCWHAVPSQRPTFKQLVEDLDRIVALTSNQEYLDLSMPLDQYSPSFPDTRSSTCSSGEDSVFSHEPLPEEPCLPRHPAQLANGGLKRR

## Ab0335: IgG4 PE; 16H7 VL (N25S, D49S, D50A, D91E, N93E); 16H7 VH (M34V, I83T, D109E); HC SEQ ID NO: 39, LC SEQ ID NO: 46
[1]
  cellular activity in the Luciferase gene reporter assay compared to 16H7: comparable cellular activity
[2]
  Charge homogeneity cIEF % main peak: 71.4%
  Charge homogeneity cIEF Number of peaks: 4
  Charge homogeneity cIEF pI: 7.1
[2]; pH 5, 40° C., d 21
  cIEF % Main peak: 59%
  cIEF Number of peaks: 4
[2]; pH 5, d 0
  cIEF % Main peak: 70%
  cIEF Number of peaks: 5
[2]; pH 6, 40° C., d 21
  cIEF % Main peak: 59%
  cIEF Number of peaks: 4
[2]; pH 6, d 0
  cIEF % Main peak: 71%
  cIEF Number of peaks: 4
[2]; pH 8, 40° C., d 21
  cIEF % Main peak: 12%
  cIEF Number of peaks: 5
[2]; pH 8, d 0
  cIEF % Main peak: 68%
  cIEF Number of peaks: 5
[3]
  Identity, correct pairing, intact mass, Identity confirmed: Yes
[3]; pH 5, 40° C.
  intact mass Identity confirmed: Yes
  intact mass Peak intensity post stress: 84%
[3]; pH 6, 40° C.
  intact mass Identity confirmed: Yes
  intact mass Peak intensity post stress: 85%
[3]; pH 8, 40° C.
  intact mass Identity confirmed: Yes
  intact mass Peak intensity post stress: 53%
[4]; 3.0 mg/kg single IV
  t½: 306 h
[5]; 1 mg/kg SC on day +1, +19, +37
  body weight compared to baseline values (value prior start of treatment): 94.5±1.8%
[5]; 3 mg/kg SC (high dose) on day +1, +19, +37
  body weight compared to baseline values (value prior start of treatment): 89.9±1.7%
[5]
  body weight (in words): Significant reductions in body weight
  food intake: Reduction of food intake
  plasma triglyceride (TG) values: quite robustly reduced
[6]
  exposure: similar

## 16H7: anti FGFR1c/KLB monoclonal antibody of WO 2011/071783, IgG2 backbone; HC SEQ ID NO: 1, LC SEQ ID NO: 2 [Ab 16H7]
[1]; monovalent Fab versus bivalent antibody
  FGF21-like activity in Luciferase gene reporter assay (in words): shows FGF21-like activity
[4]; 0.1 mg/kg single IV
  t½: 145 h
[4]; 0.3 mg/kg single IV
  t½: 151 h
[4]; 1.0 mg/kg single IV
  t½: 269 h
[5]; 1 mg/kg SC on day +1, +19, +37
  body weight compared to baseline values (value prior start of treatment): 86.5±1.6%
[5]
  body weight (in words): Significant reductions in body weight
  food intake: Reduction of food intake
  plasma triglyceride (TG) values: quite robustly reduced
[6]
  exposure: similar
